Test results as given in patent publication US9976167B2, “Group of glycosyltransferases and use thereof” (Shanghai Institutes For Biological Sciences, Chinese …, priority 2012, dated 2018).

Tests used:
Type in all cases: biochemical
[1] = Glycosyltransfering activities on ginsengenins and saponins: glycosylation site and specificity (summary); conditions: for glycosylation site: The first glycosyl at C-3 / glycosylation site: C6 / glycosylation site: C20: Table 2, tetracyclic triterpenoid substrates; for extension of carbohydrate chain: crude enzyme: lysate supernatant of recombinant yeast, UDP-glucose, 35° C., 12 hrs, TLC
Experimental: More than 100 predicted cDNA sequences of glycosyltransferases were extracted from the published expression profile data of the Panax plant. 60 cDNAs with full length were cloned, expressed, and subjected to the analysis of glycosyltransfering reaction.
(§1) The lysate supernatant of the recombinant yeasts expressing the empty vector was used as control.
(§2) The reaction was conducted under 35° C. for 12 hrs, then stopped by adding 100 μL of butanol. The product were extracted, dried in vacuum, and dissolved in methanol.
(§3) The glycosyltransfering reactions of ginsenosides and ginsengenins were catalyzed by using the lysis supernatant of the recombinant yeasts expressing 3GT1, 3GT2, 3GT3 and 3GT4 as crude enzymes. The lysis supernatant of recombinant E. coli expressing empty vectors was used as control. The 100 μL reaction system is shown as Table 3. The reaction was conducted under 35° C. for 12 hrs, then stopped by adding 100 μL of butanol. The product were extracted, dried in vacuum, and dissolved in methanol.
(§4) The lysate supernatant of the recombinant yeast expressing empty vectors was used as control. The reaction was conducted under 35° C. for 12 hrs, and then stopped by adding 100 μL of butanol. The product were extracted, dried in vacuum, and dissolved in methanol.
(§5) The glycosyltransfering reactions of ginsenosides Rh2 and F2 were catalyzed by using the lysate supernatant of the recombinant yeasts expressing 3GT1, 3GT2, 3GT3 and 3GT4 as crude enzymes. The 100 μL reaction system is shown as Table 3. The reaction was conducted under 35° C. for 12 hrs, and then stopped by adding 100 μL of butanol. The product were extracted, dried in vacuum, and dissolved in methanol.

[2] = Glycosyltransfering reaction with crude enzyme, substrate Rh2; conditions: crude enzymes of Example 21 (E. coli expression products); 35° C., 12 hrs; TLC
[3] = Glycosyltransfering reaction with crude enzyme, substrate F2; conditions: crude enzymes of Example 21 (E. coli expression products); 35° C., 12 hrs; TLC
Experimental: (§6) According to the method as in Example 4, the cell lysate of recombinant yeasts expressing gGT13 and gGT30 were used to catalyze PPD and PPT.
as §4, §5

[4] = Glycosyltransfering reaction with crude enzyme, substrate Rf; conditions: crude enzyme: lysate supernatant of recombinant yeast; UDP-glucose, 35° C., 12 hrs; TLC
Experimental: as §1, §2
(§7) The reaction products were first detected by thin layer chromatography (TLC).

[5] = Glycosyltransfering reaction with crude enzyme, substrate PPT; conditions: for glycosylation of C6-OH of PPT (product Rg1 or Rh1) / glycosylation of C20-OH of PPT (product F1): crude enzyme: lysate supernatant of recombinant yeast, UDP-glucose, 35° C., 12 hrs, TLC
Experimental: as §1, §2, §7
(§8) The converted products of gGT25 were further identified by HPLC (FIG. 10 and FIG. 11). The retention time of peak 2 was identical to that of the CK standard sample; the retention time of peak 3 was identical to that of PPD. […] Peak 1, also present in the profile of the negative control, indicated its irrelevance to the conversion of PPD. 3 peaks were shown in FIG. 11, the retention time of peak 1 was identical to that of F1 standard sample and peak 3 was identical to that of PPT. […] Peak 2, also present in the profile of the negative control, indicated its irrelevance to the conversion of PPT.
as §6, §3

[6] = Glycosyltransfering reaction with crude enzyme, substrate PPD; conditions: for glycosylation of C20-OH of PPD (product CK): crude enzyme: lysate supernatant of recombinant yeast, UDP-glucose
Experimental: as §1, §2, §7, §8, §6
The cell lysis supernatant of the recombinant E. coli was used as crude enzyme to conduct the glycosyltransfering reaction, and the reaction condition was identical to that of Example 4.
The reaction was conducted under 35° C. for 12 hrs. 100 μL of butanol was added to stop the reaction and the products were extracted. Upon vacuum drying, the product was dissolved by methanol. TLC was first used to detect the reaction product.
as §3
The reaction was conducted under 35° C. for 12 hrs, and then stopped by adding 100 μL of butanol. The product were extracted, dried in vacuum, and dissolved in methanol. The reaction products were first detected by thin layer chromatography (TLC) (FIG. 35).

[7] = Glycosyltransfering reaction with crude enzyme, substrate Rg2; conditions: crude enzyme: lysate supernatant of recombinant yeast; UDP-glucose, 35° C., 12 hrs; TLC
Experimental: as §1, §2, §7

[8] = Glycosyltransfering reaction with crude enzyme, substrate Rh2; conditions: crude enzyme: lysate supernatant of recombinant yeast; UDP-glucose, 35° C., 12 hrs; TLC
Experimental: as §1, §2
(§9) The reaction products were first detected by thin layer chromatography (TLC). […]
as §4, §5

[9] = Glycosyltransfering reaction with crude enzyme, substrate Rg3; conditions: crude enzyme: lysate supernatant of recombinant yeast; UDP-glucose, 35° C., 12 hrs; TLC
Experimental: as §1, §2, §9

[10] = Glycosyltransfering reaction with crude enzyme, substrate Rh1; conditions: crude enzyme: lysate supernatant of recombinant yeast; UDP-glucose, 35° C., 12 hrs; TLC
Experimental: as §1, §2, §9

[11] = Glycosyltransfering reaction with crude enzyme, substrate DM; conditions: crude enzyme: lysate supernatant of recombinant yeast; UDP-glucose, 35° C., 12 hrs; TLC
Experimental: as §1, §2, §7, §3

[12] = crude enzyme from recombinant yeast, HPLC

Molecule | glycosylation site: The first glycosyl at C-3 [1] | extension of C3 glycosyl of Rh2 by one more glycosyl (product Rg3) [2] | extension of C3 glycosyl of F2 by one more glycosyl (product Rd) [3] | glycosylation of C20-OH of Rf [4] | glycosylation site: C6 [1] | glycosylation site: C20 [1] | extension of carbohydrate chain [1] | transformation of PPT into F1 [5, 12] | glycosylation of C6-OH of PPT (product Rg1 or Rh1) [5] | glycosylation of C20-OH of PPT (product F1) [5] | transformation of PPD into CK [6, 12] | transformation of PPD into CK ([6]; crude enzyme: cell lysis supernatant of recombinant E. coli, 35° C., 12 hrs, TLC) | glycosylation of C20-OH of PPD (product CK) ([6]; 35° C., 12 hrs, TLC) | glycosylation of C20-OH of Rg2 [7] | glycosylation of C20-OH of Rh2 (product F2) [8] | glycosylation of C20-OH of Rg3 (product Rd) [9] | glycosylation of C20-OH of Rh1 [10] | glycosylation of C20-OH of DM (product 20-O-β-(D-glucopyranosyl)-dammarendiol II) [11]
gGT29-5: glycosyltransferase protein with 446 amino acids, SEQ ID NO.: 57 (protein, Panax ginseng; gGT29-5) MDNQKGRISIVMLPFLAHGHISPFFELAKHLSKRNCNIFLCSTPINLSSIKNRISDKDSSASIKLVELHLPSSPDLPPHYHTTNGLPSHLMVPLRNAFETAAPTFSEILKTLNPDLLIYDFNPSWAPEIASSHNIPAVCFIIGGAASFSMSLHSFKNPGEKYPFLDFDDNSNITPEPPSADNMKLLLDFMTCFERSCDIILIKSFRELEGKYIDLLSTLSDKTLVPVGPLVQDPMGHNEDPKTEQIINWLDKRAESTVVFVCFGSEYFLSNEELEEVAIGLEISMVNFIWAVRLIEGEKKGVLPEGFVQRVGDRGLVVEGWAPQARILGHSSTGGFVSHCGWSSIAESMKFGVPVIAMARHLDQPLNGKLAAEVGVGMEVVRDENGKYKREGIAEVIRKVVVEKSGEVIRRKARELSEKMKEIGEQLIDRAVEELVQICKKKKDEQ | ✓ | could not be catalyzed | could be extended by one more glycosyl | – | – | – | – | – | – | – | – | – | – | – | – | – | – | –
gGT25: glycosyltransferase protein with 475 amino acids, amino acid sequence SEQ ID NO.: 2, cloned from P. ginseng cDNA (protein, Panax ginseng; gGT25) MKSELIFLPAPAIGHLVGMVEMAKLFISRHENLSVTVLIAKFYMDTGVDNYNKSLLTNPTPRLTIVNLPETDPQNYMLKPRHAIFPSVIETQKTHVRDIISGMTQSESTRVVGLLADLLFINIMDIANEFNVPTYVYSPAGAGHLGLAFHLQTLNDKKQDVTEFRNSDTELLVPSFANPVPAEVLPSMYVDKEGGYDYLFSLFRRCRESKAIIINTFEELEPYAINSLRMDSMIPPIYPVGPILNLNGDGQNSDEAAVILGWLDDQPPSSVVFLCFGSYGSFQENQVKEIAMGLERSGHRFLWSLRPSIPKGETKLQLKYSNLKEILPVGFLDRTSCVGKVIGWAPQVAVLGHESVGGFLSHCGWNSTLESVWCGVPVATWPMYGEQQLNAFEMVKELGIAVEIEVDYKKDYFNMKNDFIVRAEEIETKIKKLMMDENNSEIRKKVKEMKEKSRAAMSENGSSYNSLAKLFEEIM | – | – | – | could not be catalyzed | ✓ | ✓ | could not catalyze | substantially transformed | C6-OH could be further glycosylated | glycosylated the C20-OH | substantially transformed | could transform PPD into CK | glycosylated the C20-OH | could not be catalyzed | further glycosylated at C20-OH | further glycosylated at C20-OH | could not be catalyzed | could also glycosylate C20-OH
gGT25-1: glycosyltransferase protein with 475 amino acids, SEQ ID NO.: 16 (protein, Panax ginseng; gGT25-1) MKSELIFLPAPAIGHLVGMVEMAKLFISRHENLSVTVLIAKFYMDTGVDNYNKSLLTNPTPRLTIVNLPETDPQNYMLKPRHAIFPSVIETQKTHVRDIISGMTQSESTRVVGLLADLLFINIMDIANEFNVPTYVYSPAGAGHLGLAFHLQTLNDKKQDVTEFRNSDTELLVPSFANPVPAEVLPSMYVDKEGGYDYLFSLFRRCRESKAIIINTFEELEPYAINSLRMDSMIPPIYPVGPILNLNGDGQNSDEAAVILGWLDDQPPSSVVFLCFGSYGTFQENQVKEIAMGLERSGHRFLWSLRPSIPKGETKLQLKYSNLEEILPVGFLDRTSCVGKVIGWAPQVAVLGHEAVGGFLSHCGWNSTLESVWCGVPVATWPMYGEQQLNAFEMVKELGIAVEIEVDYKNEYFNMNNDFIVRAEEIETKIKKLMMDEKNSEIRKKVKEMKEKSRLAMSENGSSYNSLAKLFEEIM | – | – | – | could not be catalyzed | ✓ | ✓ | could not catalyze | – | C6-OH could be further glycosylated | glycosylated the C20-OH | – | – | glycosylated the C20-OH | could not be catalyzed | further glycosylated at C20-OH | further glycosylated at C20-OH | could not be catalyzed | could also glycosylate C20-OH
gGT25-3: glycosyltransferase protein with 475 amino acids, SEQ ID NO.: 18 (protein, Panax ginseng; gGT25-3) MKSELIFLPAPAIGHLVGMVEMAKLFISRHENLSVTVLIAKFYMDTGVDNYNKSLLTNPTPRLTIVNLPETDPQNYMLKPRHAIFPSVIETQKTHVRDIISGMTQSESTQVVGLLADLLFINIMDIANEFNVPTYVYSPAGAGHLGLAFHLQTLNDKKQDVTEFRNSDTELLVPSFANPVPAEVLPSMYVDKEGGYDYLFSLFRRCRESKAIIINTFEELEPYAINSLRMDSMIPPIYPVGPILNLNGDGQNSDEAAVILGWLDDQPPSSVVFLCFGSYGSFQENQVKEIAMGLERSGHRFLWSLRPSIPKGETKLQLKYSNLKEILPVGFLDRTSCVGKVIGWAPQVAVLGHESVGGFLSHCGWNSTLESVWCGVPVATWPMYGEQQLNAFEMVKELGIAVEIEVDYKKDYFNMKNDFIVRAEEIETKIKKLMMDENNSEIRKKVKEMKEKSRAAMSENGSSYNSLAKLFEEIM | – | – | – | could not be catalyzed | ✓ | ✓ | could not catalyze | – | C6-OH could be further glycosylated | glycosylated the C20-OH | – | – | glycosylated the C20-OH | could not be catalyzed | further glycosylated at C20-OH | further glycosylated at C20-OH | could not be catalyzed | could also glycosylate C20-OH
gGT29-7: glycosyltransferase protein with 446 amino acids, SEQ ID NO.: 61 (protein, Panax ginseng; gGT29-7) MDNQKGRISIALLPFLAHGHISPFFELAKQLAKRNCNVFLCSTPINLSSIKNRVSDKDSSASIKLVELHLPSSPDLPPHYHTTNGLPSHLMIPLRNAFDTAGPTFSEILKTLNPDLLIYDFNPSWAPEIASSHNIPAVCFIIGGAASSSMSLHSFKNPGEKYPFLDFDDNSNITPEPPSADNMKLLINFMTCFERSCDIILIKSFRELEGKYFDFFSTLSDKTLVPVGPLVQDPMGHNEDPKTEQFINWLDKRAESTVVFVCFGSECFLSNEELEEVAIGLEISMVNFIWAVRLIEGEKKGVLPEGFVQRVGDRGLVVEEWAPQARILGHSSTGGFVSHCGWNSITESMKFGVPVIAMARHFDQPLNGKLAAEVGVGMEVVRDENGKYKREGIAEVIRKVVVEKSGEVIRRKARELSEKMKEKGEQEIDRVVEELVQICKKKKDEQ | ✓ | could not be catalyzed | could be extended by one more glycosyl | – | – | – | – | – | – | – | – | – | – | – | – | – | – | –
